Earlier results as cited in patent publication US7930157B2, “Computational method and apparatus for predicting polypeptide aggregation or solubility” (Cambridge University Technical Services Ltd., priority 2003, dated 2011).
Where two headings read alike, the source gives them in different places. Where no end group is shown, it is not given here.

Legend:
[1] = for hydrophobicity: neutral pH, based on partition coefficients from water to octanol
[2] = for charge: neutral pH
[3] = normalised from 0 (high β-sheet propensity) to 1 (low); glycine from theoretical calculations
[4] = experimental aggregation rate of mutant relative to wild type; growth phase only
[5] = compared to the human calcitonin sequence
[6] = pH lower than 6.0, histidine positively charged
[7] = τ obtained using T1 (nucleation time)
[8] = τ obtained using T2 (half time of aggregation)

## N[C@@H](CCC(=O)O)C(=O)O [Glu (E), Glu]
[1]
  hydrophobicity: 0.696 kcal/mol

## N[C@@H](Cc1c[nH]cn1)C(=O)O [His (H), His]
[2]; [6]
  charge (value in brackets): +1
[1]; [6]
  hydrophobicity (value in brackets): 0.686 kcal/mol

## NCCCC[C@H](N)C(=O)O [Lys (K), Lys]
[2]
  charge: +1
[1]
  hydrophobicity: 0.662 kcal/mol
[3]
  β-sheet propensity: 0.34

## N[C@@H](Cc1c[nH]c2ccccc12)C(=O)O [Trp (W), Trp]
[2]
  charge: 0
[1]
  hydrophobicity: -0.509 kcal/mol
[3]
  β-sheet propensity: 0.24

## F23A: single-point mutation F23A of amylin (islet amyloid polypeptide), ref. 11 (KCNTATCATQRLANFLVHSSNNAGAILSSTNVGSNTY; ends and bridges not checked; cysteine pairing not given here; UniProt P10997 34-70, looked up, variant F23A)
[4]
  observed ln (νmut/νwt): −2.65

## G24A: single-point mutation G24A of amylin (islet amyloid polypeptide), ref. 11 (KCNTATCATQRLANFLVHSSNNFAAILSSTNVGSNTY; ends and bridges not checked; cysteine pairing not given here; UniProt P10997 34-70, looked up, variant G24A)
[4]
  observed ln (νmut/νwt): −0.03

## I26A: single-point mutation I26A of amylin (islet amyloid polypeptide), ref. 11 (KCNTATCATQRLANFLVHSSNNFGAALSSTNVGSNTY; ends and bridges not checked; cysteine pairing not given here; UniProt P10997 34-70, looked up, variant I26A)
[4]
  observed ln (νmut/νwt): −2.39

## L27A: single-point mutation L27A of amylin (islet amyloid polypeptide), ref. 11 (KCNTATCATQRLANFLVHSSNNFGAIASSTNVGSNTY; ends and bridges not checked; cysteine pairing not given here; UniProt P10997 34-70, looked up, variant L27A)
[4]
  observed ln (νmut/νwt): −0.93

## N22A: single-point mutation N22A of amylin (islet amyloid polypeptide), ref. 11 (KCNTATCATQRLANFLVHSSNAFGAILSSTNVGSNTY; ends and bridges not checked; cysteine pairing not given here; UniProt P10997 34-70, looked up, variant N22A)
[4]
  observed ln (νmut/νwt): 0.69

## S20G: single-point mutation S20G of amylin, ref. 12 (KCNTATCATQRLANFLVHSGNNFGAILSSTNVGSNTY; ends and bridges not checked; cysteine pairing not given here; UniProt P10997 34-70, looked up, variant S20G)
[4]
  observed ln (νmut/νwt): 1.01

## SEQ ID NO 14: calcitonin sequence reported in Zurdo & Dobson (WO 02/083734), 6 modified positions when compared to the human sequence (CGNLSTCMLGKLTQELRKLHTFPQTAIGVGAP; ends and bridges not checked; cysteine pairing not given here)
[5]; [7]
  Observed (τmut/τwt): 300
  observed ln (νmut/νwt): −5.71
[5]; [8]
  Observed (τmut/τwt): 100
  observed ln (νmut/νwt): −4.61
